Laboratory results as given in IntAct's records for PubMed 23183827.

Target: syua_human SNCA (UniProt P37840)

effect of a mutation on the interaction: increasing interaction
Substance: Leucine-rich repeat serine/threonine-protein kinase 2 (Homo sapiens), Q5S007 G2019S
